Assays:
Assay in all cases: specificity ELISA as in Example 2, receptor coated
[1] = molecular target: T1, Soluble DR4 protein (R&D Systems Catalog #347-DR-100/CF) (human, UniProt O00220 24-239, limits assumed)
T1 construct: also called human DR4; TRAILR1
T1 sequence (looked up): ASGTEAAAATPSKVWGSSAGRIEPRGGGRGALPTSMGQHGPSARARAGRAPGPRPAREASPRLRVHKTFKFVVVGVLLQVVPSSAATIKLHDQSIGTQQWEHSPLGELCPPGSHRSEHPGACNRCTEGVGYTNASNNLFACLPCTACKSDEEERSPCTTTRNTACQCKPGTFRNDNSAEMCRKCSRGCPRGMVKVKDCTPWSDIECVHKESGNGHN
Experimental: (§1) Soluble DR5, DR4, DcR1, or DcR2 protein (R&D Systems Catalog #631-T2-100/CF, 347-DR-100/CF, 630-TR-100/CF, 633-TR-100 respectively) were coated on an ELISA plate at 2 μg/mL in 100 mM NaHCO₃ pH 9.5 overnight at 4° C. A solution of 2% BSA in PBS was used for the blocking and antibody incubation steps. The plate was blocked for 1 hour at room temperature, then incubated with mouse anti-human DR5 mAb (Acris Antibodies Catalog #AM31206AF-N) for 1 hour at room temperature. anti-DR5 mAb was 3-fold serially diluted to concentrations ranging from 1 to 200 μg/mL. After washing 3 times with PBS plus 0.05% Tween-20, the plate was incubated with rat anti-mouse kappa-HRP (Southern Biotech Catalog #1180-05) for 1 hour at room temperature, protected from light. After washing 3 times with PBS plus 0.05% Tween-20, the plate was incubated with TMB substrate (BD Biosciences Catalog #555214) for 20 minutes at room temperature. The reaction was stopped with 1M H₂SO₄ and absorbance at 450 nm was determined using a microtiter plate reader.
(§2) For Human Anti-DR5 mAb ELISAs, 1:2000 Mouse Anti-Human Lambda-HRP (Southern Biotech Catalog #9180-05) or 1:6000 Mouse Anti-Human Kappa-HRP (Southern Biotech Catalog #9230-05) was used for detection.
(§3) An IgG version and pentameric IgM-J chain version of anti-DR5 mAb #2 were tested for binding specificity by ELISA as described in Example 2. As shown in FIG. 8A (IgG) and FIG. 8B (IgM), the antibodies bound to human DR5 but not human DR4 or either of the decoy receptors DcR1 or DcR2.

[2] = molecular target: T2, Soluble DcR2 protein (R&D Systems Catalog #633-TR-100) (UniProt Q9UBN6 56-211, limits assumed)
T2 construct: also called decoy receptor DcR2; TRAILR4
T2 sequence (looked up): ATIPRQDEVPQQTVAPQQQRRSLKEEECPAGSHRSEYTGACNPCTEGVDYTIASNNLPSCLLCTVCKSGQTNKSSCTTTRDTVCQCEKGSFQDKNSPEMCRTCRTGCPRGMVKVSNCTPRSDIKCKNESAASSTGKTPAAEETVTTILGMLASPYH
Experimental: as §1, §2, §3

[3] = molecular target: T3, Soluble DcR1 protein (R&D Systems Catalog #630-TR-100/CF) (UniProt O14798 26-221, limits assumed)
T3 construct: also called decoy receptor DcR1; TRAILR3
T3 sequence (looked up): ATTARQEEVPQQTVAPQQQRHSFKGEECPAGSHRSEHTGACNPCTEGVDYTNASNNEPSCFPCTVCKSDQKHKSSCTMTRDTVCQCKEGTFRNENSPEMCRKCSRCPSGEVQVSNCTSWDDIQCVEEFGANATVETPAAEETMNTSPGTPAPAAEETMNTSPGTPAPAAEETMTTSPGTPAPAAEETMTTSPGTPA
Experimental: as §1, §2, §3

Measured: binding result

B1: Anti-DR5 mAb #2, pentameric IgM-J chain version (antibody, V domains shown)
VH: QVQLQESGPGLVKPSQTLSLTCTVSGGSISSGDYFWSWIRQLPGKGLECIGHIHNSGTTYYNPSLKSRVTISVDTSKKQFSLRLSSVTAADTAVYYCARDRGGDYYYGMDVWGQGTTVTVSS
VL: EIVLTQSPGTLSLSPGERATLSCRASQGISRSYLAWYQQKPGQAPSLLIYGASSRATGIPDRFSGSGSGTDFTLTISRLEPEDFAVYYCQQFGSSPWTFGQGTKVEIK
modifications: Assembled as a pentamer of bivalent IgM binding units with one J chain (10 VH/VL pairs); the letters do not carry this.
notes: VH and VL were inserted into proprietary IgM vectors; also called DR5 MAb IgM #2; IgM Anti-DR5 mAb #2; not shown: IgM heavy-chain constant region, kappa light-chain constant region and J chain of the construct
no binding: all assays above

From patent US20180009897A1 (IGM BIOSCIENCES, published 2018)
